# According to publication PMC9436119, “Alkaline ceramidase catalyzes the hydrolysis of ceramides via a catalytic mechanism shared by Zn^2+-dependent amidases” (PLoS ONE, 2022):
# T1: alkaline ceramidase 3 (ACER3) (Homo sapiens, UniProt Q9NUN7)
# T1 sequence (Q9NUN7 1-267): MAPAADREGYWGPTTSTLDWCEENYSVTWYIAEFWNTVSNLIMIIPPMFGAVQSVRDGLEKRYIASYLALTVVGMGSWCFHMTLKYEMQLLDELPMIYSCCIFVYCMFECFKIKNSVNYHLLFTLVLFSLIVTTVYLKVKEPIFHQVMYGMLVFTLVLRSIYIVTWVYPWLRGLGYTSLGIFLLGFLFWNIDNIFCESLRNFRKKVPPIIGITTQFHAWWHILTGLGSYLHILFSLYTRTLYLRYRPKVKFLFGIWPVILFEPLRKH
# B1: alkaline ceramidase 3 (ACER3) (Homo sapiens) (protein)
# chain: MAPAADREGYWGPTTSTLDWCEENYSVTWYIAEFWNTVSNLIMIIPPMFGAVQSVRDGLEKRYIASYLALTVVGMGSWCFHMTLKYEMQLLDELPMIYSCCIFVYCMFECFKIKNSVNYHLLFTLVLFSLIVTTVYLKVKEPIFHQVMYGMLVFTLVLRSIYIVTWVYPWLRGLGYTSLGIFLLGFLFWNIDNIFCESLRNFRKKVPPIIGITTQFHAWWHILTGLGSYLHILFSLYTRTLYLRYRPKVKFLFGIWPVILFEPLRKH
# notes: FLAG-tagged open reading frame of wild-type ACER3, in microsomes of yeast Δypc1Δydc1 cells
# B2: alkaline ceramidase 3 (ACER3) (Homo sapiens; S77A) (protein)
# chain: MAPAADREGYWGPTTSTLDWCEENYSVTWYIAEFWNTVSNLIMIIPPMFGAVQSVRDGLEKRYIASYLALTVVGMGAWCFHMTLKYEMQLLDELPMIYSCCIFVYCMFECFKIKNSVNYHLLFTLVLFSLIVTTVYLKVKEPIFHQVMYGMLVFTLVLRSIYIVTWVYPWLRGLGYTSLGIFLLGFLFWNIDNIFCESLRNFRKKVPPIIGITTQFHAWWHILTGLGSYLHILFSLYTRTLYLRYRPKVKFLFGIWPVILFEPLRKH
# notes: FLAG-tagged ACER3 S77A, in microsomes of yeast Δypc1Δydc1 cells
# B3: alkaline ceramidase 3 (ACER3) (Homo sapiens; S77C) (protein)
# chain: MAPAADREGYWGPTTSTLDWCEENYSVTWYIAEFWNTVSNLIMIIPPMFGAVQSVRDGLEKRYIASYLALTVVGMGCWCFHMTLKYEMQLLDELPMIYSCCIFVYCMFECFKIKNSVNYHLLFTLVLFSLIVTTVYLKVKEPIFHQVMYGMLVFTLVLRSIYIVTWVYPWLRGLGYTSLGIFLLGFLFWNIDNIFCESLRNFRKKVPPIIGITTQFHAWWHILTGLGSYLHILFSLYTRTLYLRYRPKVKFLFGIWPVILFEPLRKH
# notes: FLAG-tagged ACER3 S77C, in microsomes of yeast Δypc1Δydc1 cells
# Key:
# [1] = molecular target: T1, alkaline ceramidase 3 (ACER3); test: microsomal ceramidase activity assay with NBD-C12-PHC, HPLC fluorescence; Lineweaver-Burk kinetics; format: biochemical
# [2] = substrate: CCCCCCCCCCCCCC[C@@H](O)[C@@H](O)[C@H](CO)NC(=O)CCCCCCCCCCCNc1ccc([N+](=O)[O-])c2nonc12; test: cells, lysate or membranes; format: biochemical, Homo sapiens
# [3] = substrate: CCCCCCCCCCCCCC[C@@H](O)[C@@H](O)[C@H](CO)NC(=O)CCCCCCCCCCCNc1ccc([N+](=O)[O-])c2nonc12; test: Michaelis-Menten kinetics (KM), microsomal assay with HPLC fluorescence; format: biochemical, Homo sapiens; conditions: Zn2+ (Ca2+ in buffer) Zn2+ active site
molecule,measurement,setting,value
"CC(/C=C/C(=O)NO)=C\[C@@H](C)C(=O)c1ccc(N(C)C)cc1 [TSA, Trichostatin A]",IC50,[1],71.4 µM
B1,Km,"[2]; Zn2+ (Ca2+ in buffer) Zn2+ active site (His81, His217, His221, Asp92, Ser77)",15.48 ± 1.248 µM
B2,Km,[3],38 µM
B3,Km,[2]; Zn2+ (Ca2+ in buffer) Zn2+ active site,66.43 ± 6.143 µM
